Measurements as given in patent publication US20130143798A1 (Novo Nordisk, published 2013).
Numbered stars: 1 amine (or outer) side, 2 acyl side, 3 side chain; on linkers, the order of the positions; unused ones are H or OH. Side chains are listed from the residue outwards. Ends that are not written are not given here. * marks the point of attachment. C18 diacid = O=C(O)CCCCCCCCCCCCCCCCC(=O)*; γGlu = O=C(O)[C@H](CCC(=O)[*:2])N[*:1]; AEEA = NCCOCCOCC(=O)O

B1: N^ε24-([2-[2-[2-[[2-[2-[2-[[(4S)-5-hydroxy-4-[(18-hydroxy-18-oxooctadecanoyl)amino]-5-oxopentanoyl]amino]ethoxy]ethoxy]acetyl]amino]ethoxy]ethoxy]acetyl])[Glu^1 … (peptide)
peptide: HSQGTFTSDYSKYLDERRAQDFVK([AEEA-AEEA-γGlu-C18 diacid])WLLAT-NH2
modifications: N-terminus assumed
SMILES: CC(C)C[C@H](NC(=O)[C@H](CC(C)C)NC(=O)[C@H](Cc1c[nH]c2ccccc12)NC(=O)[C@H](CCCCNC(=O)COCCOCCNC(=O)COCCOCCNC(=O)CC[C@H](NC(=O)CCCCCCCCCCCCCCCCC(=O)O)C(=O)O)NC(=O)[C@@H](NC(=O)[C@H](Cc1ccccc1)NC(=O)[C@H](CC(=O)O)NC(=O)[C@H](CCC(N)=O)NC(=O)[C@H](C)NC(=O)[C@H](CCCNC(=N)N)NC(=O)[C@H](CCCNC(=N)N)NC(=O)[C@H](CCC(=O)O)NC(=O)[C@H](CC(=O)O)NC(=O)[C@H](CC(C)C)NC(=O)[C@H](Cc1ccc(O)cc1)NC(=O)[C@H](CCCCN)NC(=O)[C@H](CO)NC(=O)[C@H](Cc1ccc(O)cc1)NC(=O)[C@H](CC(=O)O)NC(=O)[C@H](CO)NC(=O)[C@@H](NC(=O)[C@H](Cc1ccccc1)NC(=O)[C@@H](NC(=O)CNC(=O)[C@H](CCC(N)=O)NC(=O)[C@H](CO)NC(=O)[C@@H](N)Cc1c[nH]cn1)[C@@H](C)O)[C@@H](C)O)C(C)C)C(=O)N[C@@H](C)C(=O)N[C@H](C(N)=O)[C@@H](C)O
B2: (N^ε24-([2-[2-[2-[[2-[2-[2-[[(4S)-5-hydroxy-4-[(18-hydroxy-18-oxooctadecanoyl)amino]-5-oxopentanoyl]amino]ethoxy]ethoxy]acetyl]amino]ethoxy]ethoxy]acetyl])[Gln^ … (peptide)
peptide: HSQGTFTSDYSKYLDSQRAQDFVK([AEEA-AEEA-γGlu-C18 diacid])WLVKTGP-NH2
modifications: N-terminus assumed
SMILES: CC(C)C[C@H](NC(=O)[C@H](Cc1ccc(O)cc1)NC(=O)[C@H](CCCCN)NC(=O)[C@H](CO)NC(=O)[C@H](Cc1ccc(O)cc1)NC(=O)[C@H](CC(=O)O)NC(=O)[C@H](CO)NC(=O)[C@@H](NC(=O)[C@H](Cc1ccccc1)NC(=O)[C@@H](NC(=O)CNC(=O)[C@H](CCC(N)=O)NC(=O)[C@H](CO)NC(=O)[C@@H](N)Cc1c[nH]cn1)[C@@H](C)O)[C@@H](C)O)C(=O)N[C@@H](CC(=O)O)C(=O)N[C@@H](CO)C(=O)N[C@@H](CCC(N)=O)C(=O)N[C@@H](CCCNC(=N)N)C(=O)N[C@@H](C)C(=O)N[C@@H](CCC(N)=O)C(=O)N[C@@H](CC(=O)O)C(=O)N[C@@H](Cc1ccccc1)C(=O)N[C@H](C(=O)N[C@@H](CCCCNC(=O)COCCOCCNC(=O)COCCOCCNC(=O)CC[C@H](NC(=O)CCCCCCCCCCCCCCCCC(=O)O)C(=O)O)C(=O)N[C@@H](Cc1c[nH]c2ccccc12)C(=O)N[C@@H](CC(C)C)C(=O)N[C@H](C(=O)N[C@@H](CCCCN)C(=O)N[C@H](C(=O)NCC(=O)N1CCC[C@H]1C(N)=O)[C@@H](C)O)C(C)C)C(C)C
B3: N^ε16-([2-[2-[2-[[2-[2-[2-[[(4S)-5-hydroxy-4-[(18-hydroxy-18-oxooctadecanoyl)amino]-5-oxopentanoyl]amino]ethoxy]ethoxy]acetyl]amino]ethoxy]ethoxy]acetyl])[Lys^1 … (peptide)
peptide: HSQGTFTSDYSKYLDK([AEEA-AEEA-γGlu-C18 diacid])KRAQEFVQWLLNT-NH2
modifications: N-terminus assumed
SMILES: CC(C)C[C@H](NC(=O)[C@H](Cc1ccc(O)cc1)NC(=O)[C@H](CCCCN)NC(=O)[C@H](CO)NC(=O)[C@H](Cc1ccc(O)cc1)NC(=O)[C@H](CC(=O)O)NC(=O)[C@H](CO)NC(=O)[C@@H](NC(=O)[C@H](Cc1ccccc1)NC(=O)[C@@H](NC(=O)CNC(=O)[C@H](CCC(N)=O)NC(=O)[C@H](CO)NC(=O)[C@@H](N)Cc1c[nH]cn1)[C@@H](C)O)[C@@H](C)O)C(=O)N[C@@H](CC(=O)O)C(=O)N[C@@H](CCCCNC(=O)COCCOCCNC(=O)COCCOCCNC(=O)CC[C@H](NC(=O)CCCCCCCCCCCCCCCCC(=O)O)C(=O)O)C(=O)N[C@@H](CCCCN)C(=O)N[C@@H](CCCNC(=N)N)C(=O)N[C@@H](C)C(=O)N[C@@H](CCC(N)=O)C(=O)N[C@@H](CCC(=O)O)C(=O)N[C@@H](Cc1ccccc1)C(=O)N[C@H](C(=O)N[C@@H](CCC(N)=O)C(=O)N[C@@H](Cc1c[nH]c2ccccc12)C(=O)N[C@@H](CC(C)C)C(=O)N[C@@H](CC(C)C)C(=O)N[C@@H](CC(N)=O)C(=O)N[C@H](C(N)=O)[C@@H](C)O)C(C)C
B4: N^[24-([2-[2-[2-[[2-[2-[2-[[(4S)-5-hydroxy-4-[(18-hydroxy-18-oxooctadecanoyl)amino]-5-oxopentanoyl]amino]ethoxy]ethoxy]acetyl]amino]ethoxy]ethoxy]acetyl])[Lys^1 … (peptide)
peptide: HSQGTFTSDYSKYLDSKRAQEFVK([AEEA-AEEA-γGlu-C18 diacid])WLLNT-NH2
modifications: N-terminus assumed
SMILES: CC(C)C[C@H](NC(=O)[C@H](Cc1ccc(O)cc1)NC(=O)[C@H](CCCCN)NC(=O)[C@H](CO)NC(=O)[C@H](Cc1ccc(O)cc1)NC(=O)[C@H](CC(=O)O)NC(=O)[C@H](CO)NC(=O)[C@@H](NC(=O)[C@H](Cc1ccccc1)NC(=O)[C@@H](NC(=O)CNC(=O)[C@H](CCC(N)=O)NC(=O)[C@H](CO)NC(=O)[C@@H](N)Cc1c[nH]cn1)[C@@H](C)O)[C@@H](C)O)C(=O)N[C@@H](CC(=O)O)C(=O)N[C@@H](CO)C(=O)N[C@@H](CCCCN)C(=O)N[C@@H](CCCNC(=N)N)C(=O)N[C@@H](C)C(=O)N[C@@H](CCC(N)=O)C(=O)N[C@@H](CCC(=O)O)C(=O)N[C@@H](Cc1ccccc1)C(=O)N[C@H](C(=O)N[C@@H](CCCCNC(=O)COCCOCCNC(=O)COCCOCCNC(=O)CC[C@H](NC(=O)CCCCCCCCCCCCCCCCC(=O)O)C(=O)O)C(=O)N[C@@H](Cc1c[nH]c2ccccc12)C(=O)N[C@@H](CC(C)C)C(=O)N[C@@H](CC(C)C)C(=O)N[C@@H](CC(N)=O)C(=O)N[C@H](C(N)=O)[C@@H](C)O)C(C)C
B5: N^ε24-([2-[2-[2-[[2-[2-[2-[[(4S)-5-hydroxy-4-[(18-hydroxy-18-oxooctadecanoyl)amino]-5-oxopentanoyl]amino]ethoxy]ethoxy]acetyl]amino]ethoxy]ethoxy]acetyl])[Glu^1 … (peptide)
peptide: HSQGTFTSDYSKYLDEKAAQEFVK([AEEA-AEEA-γGlu-C18 diacid])WLLNT-NH2
modifications: N-terminus assumed
SMILES: CC(C)C[C@H](NC(=O)[C@H](Cc1ccc(O)cc1)NC(=O)[C@H](CCCCN)NC(=O)[C@H](CO)NC(=O)[C@H](Cc1ccc(O)cc1)NC(=O)[C@H](CC(=O)O)NC(=O)[C@H](CO)NC(=O)[C@@H](NC(=O)[C@H](Cc1ccccc1)NC(=O)[C@@H](NC(=O)CNC(=O)[C@H](CCC(N)=O)NC(=O)[C@H](CO)NC(=O)[C@@H](N)Cc1c[nH]cn1)[C@@H](C)O)[C@@H](C)O)C(=O)N[C@@H](CC(=O)O)C(=O)N[C@@H](CCC(=O)O)C(=O)N[C@@H](CCCCN)C(=O)N[C@@H](C)C(=O)N[C@@H](C)C(=O)N[C@@H](CCC(N)=O)C(=O)N[C@@H](CCC(=O)O)C(=O)N[C@@H](Cc1ccccc1)C(=O)N[C@H](C(=O)N[C@@H](CCCCNC(=O)COCCOCCNC(=O)COCCOCCNC(=O)CC[C@H](NC(=O)CCCCCCCCCCCCCCCCC(=O)O)C(=O)O)C(=O)N[C@@H](Cc1c[nH]c2ccccc12)C(=O)N[C@@H](CC(C)C)C(=O)N[C@@H](CC(C)C)C(=O)N[C@@H](CC(N)=O)C(=O)N[C@H](C(N)=O)[C@@H](C)O)C(C)C

Each binder was assayed against glucagon receptor (UniProt P47871 26-477, limits assumed) (assay: cell-based or functional assay).
Chain of glucagon receptor (P47871 26-477 limits assumed): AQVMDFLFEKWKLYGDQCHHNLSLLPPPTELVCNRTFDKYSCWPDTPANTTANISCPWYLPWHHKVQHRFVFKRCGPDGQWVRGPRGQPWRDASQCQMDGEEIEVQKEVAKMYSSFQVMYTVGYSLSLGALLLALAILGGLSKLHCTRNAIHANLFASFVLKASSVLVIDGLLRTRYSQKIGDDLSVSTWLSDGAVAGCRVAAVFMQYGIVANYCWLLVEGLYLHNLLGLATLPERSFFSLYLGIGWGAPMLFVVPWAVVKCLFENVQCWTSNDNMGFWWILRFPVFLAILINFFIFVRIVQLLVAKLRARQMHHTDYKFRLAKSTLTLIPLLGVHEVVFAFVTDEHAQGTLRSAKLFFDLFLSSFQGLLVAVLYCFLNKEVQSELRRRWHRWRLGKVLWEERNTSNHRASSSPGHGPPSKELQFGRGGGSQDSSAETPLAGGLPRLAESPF

Compared with B1, B2 is 40-fold higher in “Assay (I) Glucagon [EC50]” value: 0.0235 nM for the first, 0.942 nM for the second.

B3 and B4 are within 1.5-fold of each other in “Assay (I) Glucagon [EC50]” value: 0.018 nM for the first, 0.016 nM for the second.

For B5, the “Assay (I) Glucagon [EC50]” value was 0.048 nM.
